Source: paper PMC3402383

Assays:
[1] = target: human complement protein C4b (human) (UniProt P0C0L4); assay: ELISA; C3b or C4b (1 µg) immobilised in microtiter wells in PBS pH 7.2; up to 1 µM His-tagged Lig protein in 2% BSA-PBS pH 7.2, 37°C, 1 h; detected with anti-His antibody; apparent Kd = concentration of LigB that gives half-maximal binding
[2] = target: human complement protein C3b (human) (UniProt P01024); assay: as above
[3] = target: human complement protein C3b (human) (UniProt P01024); conditions: scale: % of complement activity in untreated serum
[4] = target: human complement protein C4b (human) (UniProt P0C0L4)

human complement protein C3b (human), sequence (P01024 23-667, chain 1 of 2): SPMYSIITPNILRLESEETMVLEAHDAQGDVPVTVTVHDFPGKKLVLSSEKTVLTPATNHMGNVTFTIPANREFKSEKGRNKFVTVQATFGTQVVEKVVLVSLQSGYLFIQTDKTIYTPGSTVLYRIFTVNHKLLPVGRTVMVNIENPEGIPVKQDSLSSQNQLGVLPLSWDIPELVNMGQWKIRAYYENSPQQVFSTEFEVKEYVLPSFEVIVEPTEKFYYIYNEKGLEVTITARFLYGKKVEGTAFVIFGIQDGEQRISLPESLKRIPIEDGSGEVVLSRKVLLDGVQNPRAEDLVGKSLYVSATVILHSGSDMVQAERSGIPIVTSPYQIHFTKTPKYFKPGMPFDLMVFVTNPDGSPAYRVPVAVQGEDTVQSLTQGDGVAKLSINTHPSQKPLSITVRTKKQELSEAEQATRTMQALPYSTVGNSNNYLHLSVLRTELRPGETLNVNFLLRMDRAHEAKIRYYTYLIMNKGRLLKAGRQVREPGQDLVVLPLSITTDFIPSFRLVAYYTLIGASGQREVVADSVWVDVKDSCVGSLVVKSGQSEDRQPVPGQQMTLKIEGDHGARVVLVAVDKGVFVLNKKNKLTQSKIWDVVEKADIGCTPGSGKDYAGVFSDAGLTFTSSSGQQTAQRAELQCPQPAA
human complement protein C3b (human), sequence (P01024 749-1663, chain 2 of 2): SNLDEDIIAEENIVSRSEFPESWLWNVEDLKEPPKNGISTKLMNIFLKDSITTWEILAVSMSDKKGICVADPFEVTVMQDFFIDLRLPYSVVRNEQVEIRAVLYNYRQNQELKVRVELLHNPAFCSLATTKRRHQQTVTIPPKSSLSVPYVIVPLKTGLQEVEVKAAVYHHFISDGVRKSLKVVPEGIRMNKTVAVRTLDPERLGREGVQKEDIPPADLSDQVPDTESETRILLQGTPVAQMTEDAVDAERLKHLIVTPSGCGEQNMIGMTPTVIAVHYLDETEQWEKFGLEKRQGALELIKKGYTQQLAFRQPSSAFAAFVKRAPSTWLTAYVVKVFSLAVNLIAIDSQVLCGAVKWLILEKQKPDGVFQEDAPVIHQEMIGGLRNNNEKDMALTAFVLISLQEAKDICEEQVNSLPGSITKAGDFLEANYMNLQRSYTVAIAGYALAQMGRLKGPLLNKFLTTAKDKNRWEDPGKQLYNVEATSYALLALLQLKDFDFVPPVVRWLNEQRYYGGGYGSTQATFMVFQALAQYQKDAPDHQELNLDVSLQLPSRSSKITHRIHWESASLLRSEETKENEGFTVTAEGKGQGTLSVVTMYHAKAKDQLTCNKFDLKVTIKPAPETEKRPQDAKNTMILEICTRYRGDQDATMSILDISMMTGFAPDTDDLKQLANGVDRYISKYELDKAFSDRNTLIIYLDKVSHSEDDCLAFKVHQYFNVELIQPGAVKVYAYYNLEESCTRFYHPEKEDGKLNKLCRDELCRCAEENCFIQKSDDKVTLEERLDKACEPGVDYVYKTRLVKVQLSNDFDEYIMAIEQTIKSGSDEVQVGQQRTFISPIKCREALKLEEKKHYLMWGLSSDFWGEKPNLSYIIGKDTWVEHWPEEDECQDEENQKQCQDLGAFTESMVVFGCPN
human complement protein C4b (human), sequence (P0C0L4 20-675, chain 1 of 3): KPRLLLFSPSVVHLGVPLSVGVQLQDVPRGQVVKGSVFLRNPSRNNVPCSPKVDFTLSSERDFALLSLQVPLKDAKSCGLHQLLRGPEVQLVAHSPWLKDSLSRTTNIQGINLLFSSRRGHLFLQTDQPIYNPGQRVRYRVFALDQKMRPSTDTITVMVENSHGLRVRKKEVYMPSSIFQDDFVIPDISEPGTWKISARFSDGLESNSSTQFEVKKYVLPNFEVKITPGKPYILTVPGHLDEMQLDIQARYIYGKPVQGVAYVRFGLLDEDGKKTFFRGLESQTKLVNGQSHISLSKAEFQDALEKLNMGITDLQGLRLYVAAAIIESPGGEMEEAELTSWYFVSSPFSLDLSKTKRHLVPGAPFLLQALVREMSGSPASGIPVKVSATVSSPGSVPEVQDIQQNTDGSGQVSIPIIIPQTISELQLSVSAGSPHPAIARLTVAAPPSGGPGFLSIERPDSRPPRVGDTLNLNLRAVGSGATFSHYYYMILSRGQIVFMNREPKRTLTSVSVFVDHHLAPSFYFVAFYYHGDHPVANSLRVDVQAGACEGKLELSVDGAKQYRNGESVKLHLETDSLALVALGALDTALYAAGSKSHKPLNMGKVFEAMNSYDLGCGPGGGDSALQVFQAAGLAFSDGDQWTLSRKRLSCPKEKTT
human complement protein C4b (human), sequence (P0C0L4 757-1446, chain 2 of 3): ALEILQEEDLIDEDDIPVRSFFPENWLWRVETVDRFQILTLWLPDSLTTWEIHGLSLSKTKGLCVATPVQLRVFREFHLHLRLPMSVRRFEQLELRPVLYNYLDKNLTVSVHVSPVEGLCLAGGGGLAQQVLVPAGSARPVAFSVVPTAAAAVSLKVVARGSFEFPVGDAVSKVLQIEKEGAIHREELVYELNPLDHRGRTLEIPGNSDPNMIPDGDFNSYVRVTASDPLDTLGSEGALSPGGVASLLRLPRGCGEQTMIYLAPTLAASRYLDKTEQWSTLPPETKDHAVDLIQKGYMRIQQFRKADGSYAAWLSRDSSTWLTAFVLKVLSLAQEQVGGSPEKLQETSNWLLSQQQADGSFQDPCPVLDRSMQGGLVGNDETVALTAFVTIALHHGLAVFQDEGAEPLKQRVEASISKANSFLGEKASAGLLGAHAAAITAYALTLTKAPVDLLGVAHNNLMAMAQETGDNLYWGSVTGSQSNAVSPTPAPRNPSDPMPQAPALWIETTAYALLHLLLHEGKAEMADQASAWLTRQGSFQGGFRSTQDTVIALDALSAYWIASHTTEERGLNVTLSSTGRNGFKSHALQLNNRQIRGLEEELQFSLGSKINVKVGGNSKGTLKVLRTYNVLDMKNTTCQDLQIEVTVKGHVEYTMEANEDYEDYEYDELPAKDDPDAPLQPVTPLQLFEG
human complement protein C4b (human), sequence (P0C0L4 1454-1744, chain 3 of 3): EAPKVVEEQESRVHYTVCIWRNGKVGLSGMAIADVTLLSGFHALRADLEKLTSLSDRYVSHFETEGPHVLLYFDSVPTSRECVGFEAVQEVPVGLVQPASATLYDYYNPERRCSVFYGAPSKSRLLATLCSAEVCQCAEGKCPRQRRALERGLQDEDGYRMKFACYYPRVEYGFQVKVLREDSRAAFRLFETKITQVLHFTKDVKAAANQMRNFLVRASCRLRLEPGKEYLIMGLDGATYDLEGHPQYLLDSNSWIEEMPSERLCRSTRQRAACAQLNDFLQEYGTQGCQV

Substance	Kd [1] [nM]	Kd [2] [nM]	complement-mediated hemolysis of rabbit erythrocytes (alternative pathway) after preincubation of normal human serum with the protein, as % of complement activity in untreated serum [3]	complement-mediated hemolysis of antibody-sensitized sheep erythrocytes (classical pathway) after preincubation of normal human serum with the protein, as % of untreated serum (% of untreated serum) [4]
LigB7′-12 (from UniProt C0J1Q6 1-1889) (domain or fragment)	69	43	–	–
LigB8-12 (domain or fragment)	–	–	38.9	71.4
LigB9-11 (domain or fragment)	67	69	57.8	64
LigB9-12 (domain or fragment)	57	69	–	–
